The target of experiment [1] is T1, CCR3 (Homo sapiens, UniProt P51677).
T1 sequence (P51677 1-355): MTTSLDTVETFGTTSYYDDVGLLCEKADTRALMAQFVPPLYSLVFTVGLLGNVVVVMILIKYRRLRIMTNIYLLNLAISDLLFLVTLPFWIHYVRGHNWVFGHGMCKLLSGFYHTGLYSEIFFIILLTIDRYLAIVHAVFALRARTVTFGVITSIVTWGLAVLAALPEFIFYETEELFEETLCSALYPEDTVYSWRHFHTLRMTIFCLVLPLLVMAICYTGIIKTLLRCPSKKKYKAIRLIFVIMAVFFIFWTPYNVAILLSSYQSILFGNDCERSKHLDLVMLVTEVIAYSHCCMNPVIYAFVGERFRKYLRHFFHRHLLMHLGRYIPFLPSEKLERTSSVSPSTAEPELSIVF
To be noted: CCR3 agonism; Buskermolen et al. 2017; cited from earlier work.

Experiment [2] has as its system HEKn. The experiment is described as follows: Proliferation assay (PrestoBlue). The format is cell-based, human. To be noted: 16 hours. As for the experimental part: Cells were plated on a collagen I coated 96-well plate (Corning, New York, NY) at a density of 4×10^3 cells per well, and then allowed to attach overnight. The next day, cells were treated with CCL24 (Biolegend, San Diego, CA), CCL26 (Biolegend, San Diego, CA), or IGF (ThermoFisher, Waltham, MA) for 16 hours. To assess viability, PrestoBlue (Life Technologies, Carlsbad, CA) was added according to manufacturer's protocol, and results were obtained on a microplate reader (BioTek, Winooski, VT).

In experiment [3] the test system is HEKn. The experiment is described as follows: Cell exclusion zone assay (in vitro wound closure / migration). It counts as cell-based, human. To be noted: 16 hours. As for the experimental part: HEKn were seeded (2.0×10^4 per well) around the barrier of a collagen I coated Oris Cell Migration Assay 96-well plate (Platypus, West Lebanon, NH). Cells were incubated overnight to allow for cell attachment. After incubation, the circular barriers were removed (except for reference wells), and the cells were treated with either anti-CCR3 (R&D Systems, Minneapolis, MN) (2 ug/mL), IgG control (R&D Systems, Minneapolis, MN; 2 μg/mL), CCL24 (Biolegend, […], CA), CCL26 (Biolegend, San Jose, CA), or IGF (ThermoFisher, Waltham, MA; 10 ng/mL) for 16 hours. At the end of the experiment, Calcein-AM (Life Technologies, Carlsbad, CA) (2 μM) was added prior to obtaining images with a Nikon TE2000-E inverted epi-fluorescence microscope (2× objective). ImageJ (NIH) was utilized to analyze the images.

The test system of experiment [4] is keratinocytes. The following applies: Kroeze et al. 2012, type IV collagen; cited from earlier work.

Turning to “CCL28: chemokine used for CCR3 agonism in cited oral wound healing study”, the oral wound healing result in experiment [1] is “promote”.

B1: CCL26: CCR3-specific ligand Chemokine (C-C motif) ligand 26 (eotaxin-3), Biolegend (protein)
chain: TRGSDISKTCCFQYSHKPLPWTWVRSYEFTSNSCSQRAVIFTTKRGKKVCTHPRKKWVQKYISLLKTPKQL
With B1, the keratinocyte proliferation entry in experiment [2] (20 ng/mL), in experiment [2] (50 ng/mL) and in experiment [2] (100 ng/mL) was “significantly reduced” in each case. Also, the keratinocyte migration result in experiment [3] is recorded as “did not significantly alter”.

B2: CCL24: CCR3-specific ligand Chemokine (C-C motif) ligand 24 (eotaxin-2), Biolegend (protein)
chain: VVIPSPCCMFFVSKRIPENRVVSYQLSSRSTCLKAGVIFTTKKGQQFCGDPKQEWVQRYMKNLDAKQKKASPRARAVA
With B2, the keratinocyte proliferation result in experiment [2] (20 ng/mL) is “significantly reduced”; in experiment [2] (50 ng/mL), “significantly reduced”; in experiment [2] (100 ng/mL), “significantly reduced”; in experiment [4] it was “promoted”. Besides, the keratinocyte migration entry in experiment [3] is given as “did not significantly alter”.
